The values that follow come from publication PMC11154737.

This test deals with Streptolysin O (SLO), wild type, full length (Streptococcus pyogenes) (UniProt P0DF96). Put plainly: ELISA. Background: An ELISA detects its analyte on a solid surface through an enzyme-linked reagent.
UniProt P0DF96, sequence (P0DF96 34-571): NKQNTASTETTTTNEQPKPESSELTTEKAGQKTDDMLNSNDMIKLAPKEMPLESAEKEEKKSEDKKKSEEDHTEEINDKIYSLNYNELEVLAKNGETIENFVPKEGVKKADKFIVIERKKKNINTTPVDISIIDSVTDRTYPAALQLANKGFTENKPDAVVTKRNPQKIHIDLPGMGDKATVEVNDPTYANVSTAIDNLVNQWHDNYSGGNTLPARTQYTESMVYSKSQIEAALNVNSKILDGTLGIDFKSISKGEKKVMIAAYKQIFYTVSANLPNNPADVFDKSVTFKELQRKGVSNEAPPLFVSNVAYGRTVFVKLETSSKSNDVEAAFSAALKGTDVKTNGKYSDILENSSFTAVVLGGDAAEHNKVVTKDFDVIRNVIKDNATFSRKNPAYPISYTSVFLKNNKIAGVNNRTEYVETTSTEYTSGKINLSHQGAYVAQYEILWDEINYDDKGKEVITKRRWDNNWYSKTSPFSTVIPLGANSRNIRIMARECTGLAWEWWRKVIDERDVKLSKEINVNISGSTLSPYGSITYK

“murine neutralizing monoclonal antibody (nAb) against Streptolysin O, Abcam AB23501”: the Kd amounted to 1.12 nM.

The Kd is the equilibrium constant for the complex coming apart. Low readings indicate higher affinity, high ones lower affinity.
